Test results: US20260217793A1 (Chugai, published 2026)

How the values were obtained:
[1] = target: T1, FcγRIIaR (human, UniProt P12318 34-217); experiment: SPR
T1 sequence (looked up): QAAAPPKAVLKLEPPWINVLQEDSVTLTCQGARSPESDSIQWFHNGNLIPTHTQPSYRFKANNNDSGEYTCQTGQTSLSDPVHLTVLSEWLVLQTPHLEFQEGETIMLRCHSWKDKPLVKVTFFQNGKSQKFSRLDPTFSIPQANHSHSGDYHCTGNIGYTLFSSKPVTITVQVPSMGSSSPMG

[2] = target: FcγRIIIa type V extracellular domain with C-terminal His tag (human, UniProt P08637 17-208); experiment: SPR
[3] = target: T2, FcγRIIa type H extracellular domain with C-terminal His tag (human, UniProt P12318 34-217); experiment: SPR
T2 sequence (looked up): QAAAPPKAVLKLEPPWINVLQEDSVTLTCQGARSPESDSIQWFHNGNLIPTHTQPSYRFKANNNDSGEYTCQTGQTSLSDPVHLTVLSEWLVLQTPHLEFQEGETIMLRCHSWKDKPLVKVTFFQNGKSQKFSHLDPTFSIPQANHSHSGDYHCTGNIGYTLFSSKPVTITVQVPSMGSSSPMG

[4] = target: T3, FcγRIIaH (human, UniProt P12318 34-217); experiment: SPR
T3 sequence (looked up): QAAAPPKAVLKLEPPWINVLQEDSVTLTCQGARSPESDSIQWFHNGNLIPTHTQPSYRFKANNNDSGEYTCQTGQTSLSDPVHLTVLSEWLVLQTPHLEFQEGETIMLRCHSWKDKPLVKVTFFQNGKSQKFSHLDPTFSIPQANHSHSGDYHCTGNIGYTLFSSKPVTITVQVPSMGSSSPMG

[5] = target: human FcγRIa extracellular domain with C-terminal His tag (human, UniProt P12314 16-292); experiment: SPR
Chain of human FcγRIa extracellular domain with C-terminal His tag (P12314 16-292): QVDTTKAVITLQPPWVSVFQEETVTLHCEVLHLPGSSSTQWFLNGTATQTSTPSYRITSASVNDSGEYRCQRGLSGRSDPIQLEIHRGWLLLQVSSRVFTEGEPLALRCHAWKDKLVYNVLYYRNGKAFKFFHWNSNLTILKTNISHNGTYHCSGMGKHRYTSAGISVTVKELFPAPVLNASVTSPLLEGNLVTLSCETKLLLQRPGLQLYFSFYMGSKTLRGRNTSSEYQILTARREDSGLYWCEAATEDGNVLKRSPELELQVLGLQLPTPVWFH

[6] = target: T4, human FcγRIIa type R (Arg131) extracellular domain with C-terminal His tag (human, UniProt P12318 34-217); experiment: SPR
T4 sequence (looked up): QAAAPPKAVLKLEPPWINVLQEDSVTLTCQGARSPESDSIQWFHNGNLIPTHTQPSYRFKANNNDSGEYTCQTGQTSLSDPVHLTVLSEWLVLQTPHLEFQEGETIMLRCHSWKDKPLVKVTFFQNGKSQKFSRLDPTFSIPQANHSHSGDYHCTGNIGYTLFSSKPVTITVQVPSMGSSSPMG

[7] = target: T5, human FcγRIIb extracellular domain with C-terminal His tag (human, UniProt P31994 43-217); experiment: SPR
T5 sequence (looked up): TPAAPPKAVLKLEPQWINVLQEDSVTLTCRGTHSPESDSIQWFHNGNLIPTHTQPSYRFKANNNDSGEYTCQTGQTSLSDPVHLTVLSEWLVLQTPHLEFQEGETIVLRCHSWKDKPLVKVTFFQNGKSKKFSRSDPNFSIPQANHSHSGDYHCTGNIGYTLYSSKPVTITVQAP

[8] = target: T6, FcγRIIb extracellular domain with C-terminal His tag (human, UniProt P31994 43-217); experiment: SPR
T6 sequence (looked up): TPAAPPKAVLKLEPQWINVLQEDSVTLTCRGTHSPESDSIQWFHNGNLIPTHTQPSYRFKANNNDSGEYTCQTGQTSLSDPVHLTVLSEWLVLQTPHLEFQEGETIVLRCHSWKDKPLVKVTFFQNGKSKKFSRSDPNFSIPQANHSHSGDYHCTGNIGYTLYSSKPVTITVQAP

[9] = target: T6, FcγRIIb extracellular domain with …; experiment: SPR; remark: listed apart in the source
[10] = target: T6, FcγRIIb extracellular domain with …; experiment: SPR; remark: listed apart in the source
[11] = target: T7, mouse FcγRIIb (mouse, UniProt P08101 30-210); experiment: SPR
T7 sequence (looked up): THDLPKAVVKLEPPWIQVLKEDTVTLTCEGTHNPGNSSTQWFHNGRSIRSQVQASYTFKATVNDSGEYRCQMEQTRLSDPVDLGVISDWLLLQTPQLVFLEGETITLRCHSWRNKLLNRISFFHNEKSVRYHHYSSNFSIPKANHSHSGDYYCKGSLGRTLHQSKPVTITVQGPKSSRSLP

[12] = target: T8, mouse FcγRIII (mouse, UniProt P08508 31-215); experiment: SPR
T8 sequence (looked up): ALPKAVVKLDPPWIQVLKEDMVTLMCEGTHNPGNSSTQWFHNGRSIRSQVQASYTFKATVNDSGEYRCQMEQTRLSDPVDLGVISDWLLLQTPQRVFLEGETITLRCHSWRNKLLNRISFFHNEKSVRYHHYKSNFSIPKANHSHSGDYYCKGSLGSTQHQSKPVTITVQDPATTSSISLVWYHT

[13] = target: T7, mouse FcγRIIb; experiment: SPR; remark: listed apart in the source
[14] = target: T8, mouse FcγRIII; experiment: SPR; remark: listed apart in the source
[15] = target: T9, human FcγRIIb extracellular domain with C-terminal His tag (human, UniProt P31994 43-217); experiment: ratio of SPR KDs, FcγRIIaR over FcγRIIb
T9 sequence (looked up): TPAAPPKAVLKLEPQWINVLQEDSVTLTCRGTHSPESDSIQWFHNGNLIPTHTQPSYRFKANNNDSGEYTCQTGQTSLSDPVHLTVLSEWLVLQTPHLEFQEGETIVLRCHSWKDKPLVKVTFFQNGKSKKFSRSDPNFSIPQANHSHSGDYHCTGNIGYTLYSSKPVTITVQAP

[16] = target: T10, human FcγRIIa type R (131Arg) extracellular domain with C-terminal His tag (human, UniProt P12318 34-217); experiment: ratio of SPR KDs, reference IL6R-B3/IL6R-L
T10 sequence (looked up): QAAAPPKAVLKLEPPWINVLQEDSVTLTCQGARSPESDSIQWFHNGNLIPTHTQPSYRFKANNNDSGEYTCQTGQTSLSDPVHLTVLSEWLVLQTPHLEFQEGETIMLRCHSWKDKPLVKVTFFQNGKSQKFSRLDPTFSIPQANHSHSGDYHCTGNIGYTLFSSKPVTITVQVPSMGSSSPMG

[17] = target: T9, human FcγRIIb extracellular domain with …; experiment: ratio of SPR KDs, reference IL6R-B3/IL6R-L

Chain of FcγRIIIa type V extracellular domain with C-terminal His tag (P08637 17-208 F176V): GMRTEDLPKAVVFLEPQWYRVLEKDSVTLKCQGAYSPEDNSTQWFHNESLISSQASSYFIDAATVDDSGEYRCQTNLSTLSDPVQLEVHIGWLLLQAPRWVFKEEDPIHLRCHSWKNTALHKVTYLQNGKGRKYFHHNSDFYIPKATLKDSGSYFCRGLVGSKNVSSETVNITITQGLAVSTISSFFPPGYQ

B1: IL6R-BP144/IL6R-L (antibody, human IgG1, kappa)
heavy: QVQLQESGPGLVKPSETLSLTCAVSGHSISHDHAWSWVRQPPGEGLEWIGFISYSGITNYNPSLQGRVTISRDNSKNTLYLQMNSLRAEDTAVYYCARSLARTTAMDYWGEGTLVTVSSASTKGPSVFPLAPSSKSTSGGTAALGCLVKDYFPEPVTVSWNSGALTSGVHTFPAVLQSSGLYSLSSVVTVPSSSLGTQTYICNVNHKPSNTKVDKKVEPKSCDKTHTCPPCPAPELLGDDSVFLFPPKPKDTLMISRTPEVTCVVVDVSHEDPEVKFNWYVDGVEVHNAKTKPREEQYNSTYRVVSVLTVLHQDWLNGKEYKCKVSNAALPAPIEKTISKAKGQPREPQVYTLPPSRDELTKNQVSLTCLVKGFYPSDIAVEWESNGQPENNYKTTPPVLDSDGSFFLYSKLTVDKSRWQQGNVFSCSVMHEALHNHYTQESLSLSP
light: not shown
Kd [1]: 5.9 µM

B2: IL6R-BP248/IL6R-L (antibody, human IgG1, kappa)
heavy: QVQLQESGPGLVKPSETLSLTCAVSGHSISHDHAWSWVRQPPGEGLEWIGFISYSGITNYNPSLQGRVTISRDNSKNTLYLQMNSLRAEDTAVYYCARSLARTTAMDYWGEGTLVTVSSASTKGPSVFPLAPSSKSTSGGTAALGCLVKDYFPEPVTVSWNSGALTSGVHTFPAVLQSSGLYSLSSVVTVPSSSLGTQTYICNVNHKPSNTKVDKKVEPKSCDKTHTCPPCPAPDLLGDDSVFLFPPKPKDTLMISRTPEVTCVVVDVSDEDGEVKFNWYVDGVEVHNAKTKPREEQDNSTYRVVSVLTVLHQDWLNGKEYKCKVSNAALPRPIEKTISKAKGQPREPQVYTLPPSRDELTKNQVSLTCLVKGFYPSDIAVEWESNGQPENNYKTTPPVLDSDGSFFLYSKLTVDKSRWQQGNVFSCSVMHEALHNHYTQESLSLSP
light: not shown
Kd [2]: 4400 µM

B3: IL6R-BP245/IL6R-L (antibody, human IgG1, kappa)
heavy: QVQLQESGPGLVKPSETLSLTCAVSGHSISHDHAWSWVRQPPGEGLEWIGFISYSGITNYNPSLQGRVTISRDNSKNTLYLQMNSLRAEDTAVYYCARSLARTTAMDYWGEGTLVTVSSASTKGPSVFPLAPSSKSTSGGTAALGCLVKDYFPEPVTVSWNSGALTSGVHTFPAVLQSSGLYSLSSVVTVPSSSLGTQTYICNVNHKPSNTKVDKKVEPKSCDKTHTCPPCPAPDLLGDDSVFLFPPKPKDTLMISRTPEVTCVVVDVQDEDGEVKFNWYVDGVEVHNAKTKPREEQDNSTYRVVSVLTVLHQDWLNGKEYKCKVSNDALPRPIEKTISKAKGQPREPQVYTLPPSRDELTKNQVSLTCLVKGFYPSDIAVEWESNGQPENNYKTTPPVLDSDGSFFLYSKLTVDKSRWQQGNVFSCSVMHEALHNHYTQESLSLSP
light: not shown
Kd [3]: 23 µM

B4: IL6R-BP146/IL6R-L (antibody, human IgG1, kappa)
heavy: QVQLQESGPGLVKPSETLSLTCAVSGHSISHDHAWSWVRQPPGEGLEWIGFISYSGITNYNPSLQGRVTISRDNSKNTLYLQMNSLRAEDTAVYYCARSLARTTAMDYWGEGTLVTVSSASTKGPSVFPLAPSSKSTSGGTAALGCLVKDYFPEPVTVSWNSGALTSGVHTFPAVLQSSGLYSLSSVVTVPSSSLGTQTYICNVNHKPSNTKVDKKVEPKSCDKTHTCPPCPAPEYLGDDSVFLFPPKPKDTLMISRTPEVTCVVVDVSHEDPEVKFNWYVDGVEVHNAKTKPREEQYNSTYRVVSVLTVLHQDWLNGKEYKCKVSNAALPAPIEKTISKAKGQPREPQVYTLPPSRDELTKNQVSLTCLVKGFYPSDIAVEWESNGQPENNYKTTPPVLDSDGSFFLYSKLTVDKSRWQQGNVFSCSVMHEALHNHYTQESLSLSP
light: not shown
Kd [4]: 16 µM

B5: IL6R-BP500/IL6R-L (antibody, human IgG1, kappa)
heavy: QVQLQESGPGLVKPSETLSLTCAVSGHSISHDHAWSWVRQPPGEGLEWIGFISYSGITNYNPSLQGRVTISRDNSKNTLYLQMNSLRAEDTAVYYCARSLARTTAMDYWGEGTLVTVSSASTKGPSVFPLAPSSKSTSGGTAALGCLVKDYFPEPVTVSWNSGALTSGVHTFPAVLQSSGLYSLSSVVTVPSSSLGTQTYICNVNHKPSNTKVDKKVEPKSCDKTHTCPPCPAPELLGDDSVFLFPPKPKDTLMISRTPEVTCVVIDVAEEDGEVKFNWYVDGVEVHNAKTKPREEQDNSTYRVVSVLTVLHQDWLNGKEYKCKVSNKALPAPIEKTISKAKGQPREPQVYTLPPSRDELTKNQVSLTCLVKGFYPSDIAVEWESNGQPENNYKTTPPVLDSDGSFFLYSKLTVDKSRWQQGNVFSCSVMHEALHNHYTQESLSLSP
light: not shown
binding result [5]: binds | KD (IIaR) of parent polypeptide/KD (IIaR) of altered polypeptide [6]: 1.5 | KD (IIb) of parent polypeptide/KD (IIb) of altered polypeptide [7]: 128

B6: IL6R-BP198/IL6R-L (antibody, human IgG1, kappa)
heavy: QVQLQESGPGLVKPSETLSLTCAVSGHSISHDHAWSWVRQPPGEGLEWIGFISYSGITNYNPSLQGRVTISRDNSKNTLYLQMNSLRAEDTAVYYCARSLARTTAMDYWGEGTLVTVSSASTKGPSVFPLAPSSKSTSGGTAALGCLVKDYFPEPVTVSWNSGALTSGVHTFPAVLQSSGLYSLSSVVTVPSSSLGTQTYICNVNHKPSNTKVDKKVEPKSCDKTHTCPPCPAPDYLGGDSVFLFPPKPKDTLMISRTPEVTCVVVDVSDEDGEVKFNWYVDGVEVHNAKTKPREEQYNSTYRVVSVLTVLHQDWLNGKEYKCKVSNAALPKPIEKTISKAKGQPREPQVYTLPPSRDELTKNQVSLTCLVKGFYPSDIAVEWESNGQPENNYKTTPPVLDSDGSFFLYSKLTVDKSRWQQGNVFSCSVMHEALHNHYTQESLSLSP
light: not shown
KD (IIb) of parent polypeptide/KD (IIb) of altered polypeptide [8]: 15.7 ratio | KD (IIaH)/KD (IIb) [9]: 102 ratio | KD (IIaR)/KD (IIb) [10]: 11 ratio

B7: VH3/L(WT)-mIgG1-MB367 (antibody)
heavy: QVQLQESGPGLVKPSETLSLTCAVSGHSISHDHAWSWVRQPPGEGLEWIGFISYSGITNYNPSLQGRVTISRDNSKNTLYLQMNSLRAEDTAVYYCARSLARTTAMDYWGEGTLVTVSSAKTTPPSVYPLAPGSAAQTNSMVTLGCLVKGYFPEPVTVTWNSGSLSSGVHTFPAVLQSDLYTLSSSVTVPSSTWPSETVTCNVAHPASSTKVDKKIVPRDCGCKPCICEANEVEDVFIFPPKPKDVLTITLTPKVTCVVVDISKDDPEVQFSWFVDDVEVHTAQTQPREEQFNSTFRSVSELPIMHQDWLNGKEFKCRVNSAAFPAPIEKTISKTKGRPKAPQVYTIPPPKEQMAKDKVSLTCMITDFFPEDITVEWQWNGQPAENYKNTQPIMDTDGSYFVYSKLNVQKSNWEAGNTFTCSVLHEGLHNHHT
light: not shown
binding ratio compared to mIgG1 [11]: 159 | binding ratio compared to mIgG1 [12]: 6.2 | Kd [13]: 0.00132 µM | Kd [14]: 0.0454 µM

B8: IL6R-BP478/IL6R-L (antibody)
heavy: QVQLQESGPGLVKPSETLSLTCAVSGHSISHDHAWSWVRQPPGEGLEWIGFISYSGITNYNPSLQGRVTISRDNSKNTLYLQMNSLRAEDTAVYYCARSLARTTAMDYWGEGTLVTVSSASTKGPSVFPLAPCSRSTSESTAALGCLVKDYFPEPVTVSWNSGALTSGVHTFPAVLQSSGLYSLSSVVTVPSSSLGTKTYTCNVDHKPSNTKVDKRVESKYGPPCPPCPAPDLLGDDSVFLFPPKPKDTLMISRTPEVTCVVVDVSDEDGEVKFNWYVDGVEVHNAKTKPREEQDNSTYRVVSVLTVLHQDWLNGKEYKCKVSNKALPRPIEKTISKAKGQPREPQVYTLPPSRDELTKNQVSLTCLVKGFYPSDIAVEWESNGQPENNYKTTPPVLDSDGSFFLYSKLTVDKSRWQQGNVFSCSVMHEALHNHYTQESLSLSP
light: not shown
KD (IIaR)/KD (IIb) [15]: 28 | KD (IIaR) of parent polypeptide/KD (IIaR) of altered polypeptide [16]: 2 | KD (IIb) of parent polypeptide/KD (IIb) of altered polypeptide [17]: 161
